The assay deals with CD46 expression. Briefly: CD46 expression by RNA-sequencing in unpaired pre-treatment and post-treatment tumor biopsies. The conditions noted are these: for CD46 expression diff: Post minus Pre, unpaired biopsies, log2-transformed counts; for CD46 expression Percentage change: post- vs pre-treatment unpaired biopsies; for CD46 expression Post: post-treatment biopsies, unpaired, RNA-seq log2-transformed normalized counts. In kind it is in vivo, human.

B1: filgrastim (protein, chains of the INN, looked up)
chain: MTPLGPASSLPQSFLLKCLEQVRKIQGDGAALQEKLCATYKLCHPEELVLLGHSLGIPWAPLSSCPSQALQLAGCLSQLHSGLFLYQGLLQALEGISPELGPTLDTLQLDVADFATTIWQQMEELGMAPALQPTQGAMPAFASAFQRRAGGVLVASHLQSFLEVSYRVLRHLAQP
Consider B1, for which, where the note is “Breast Cancer”, the CD46 expression diff is given as 0.02, the “CD46 expression Percentage change” value amounted to 0.3% and the “CD46 expression Post” value worked out at 6.23.

B2: pegfilgrastim (protein, chains of the INN, looked up)
chain: TPLGPASSLPQSFLLKCLEQVRKIQGDGAALQEKLCATYKLCHPEELVLLGHSLGIPWAPLSSCPSQALQLAGCLSQLHSGLFLYQGLLQALEGISPELGPTLDTLQLDVADFATTIWQQMEELGMAPALQPTQGAMPAFASAFQRRAGGVLVASHLQSFLEVSYRVLRHLAQP
modifications: PEG
For B2, the CD46 expression diff is reported as −0.13 (Breast Cancer), 0.29 (Colorectal Cancer) and 0.07 (Non-Small Cell Lung Cancer). Moreover, the “CD46 expression Percentage change” value is, setting by setting: (Breast Cancer) −2.1%; (Colorectal Cancer) 4.6%; (Non-Small Cell Lung Cancer) 1.2%. In addition, the “CD46 expression Post” value (Breast Cancer) is 6.25, the “CD46 expression Post” value (Colorectal Cancer) came to 6.62 and the “CD46 expression Post” value (Non-Small Cell Lung Cancer) stood at 6.06.

The record behind these values is US20240058464A1 (Fortis Therapeutics, Inc., priority 2021, published 2024).
